The values that follow come from CN116178530A.

For this test, the target named is SARS-CoV-2活病毒的刺突蛋白 (SARS-CoV-2) (UniProt P0DTC2). In words: cell-based or functional assay.

Take CB6 (antibody): the 活病毒中和 ND50 (CPE抑制, Vero E6细胞) was 0.256 µg/mL.
